In patent US7897569B2, “Use of HMGB fragments as anti-inflammatory agents” (The Feinstein Institute for Medical Research, priority 2001, dated 2011):
Marks after values point to notes of the source that are not given here.

What was measured:
[1] = system: D-galactosamine-sensitized Balb/c mice; assay: Histology and serum cytokines in D-galactosamine-sensitized Balb/c mice; type: in vivo
Method: To further assess the lethality of the HMGB1 B box protein in vivo the HMGB1 B box was again administered to D-galactosamine-sensitized Balb/c mice. Mice (3 per group) received D-gal (20 mg/mouse) plus B box or vector (1 mg/mouse) intraperitoneally for 7 hours and were then sacrificed by decapitation. Blood was collected, and organs (liver, heart, kidney and lung) were harvested and fixed in 10% formaldehyde. Tissue sections were prepared with hematoxylin and eosin staining for histological evaluation (Criterion Inc., Vancouver, Canada). The results of these studies are shown in FIGS. 7A-7J, which are scanned images of hematoxylin and eosin stained kidney sections (FIG. 7A), myocardium sections (FIG. 7C), lung sections (FIG. 7E), and liver sections (FIGS. 7G and 7I) obtained from an untreated mouse and kidney sections (FIG. 7B), myocardium sections (FIG. 7D), lung sections (FIG. 7F), and liver sections (FIGS. 7H and 7J) obtained from mice treated with the HMGB1 B box. […] In FIG. 7J, hepatocyte dropouts are seen surrounded by accumulated polymorphonuclear leukocytes. The arrows in FIG. 7J point to the sites of polymorphonuclear accumulation (dotted) or apoptotic hepatocytes (solid).

[2] = system: D-galactosamine-sensitized Balb/c mice; assay: Toxicity in D-galactosamine-sensitized Balb/c mice (survival); type: in vivo
Method: The D-galactosamine-sensitized model has been described previously (Galanos et al., Proc Natl. Acad. Sci. USA 76: 5939-5943, 1979; and Lehmann et al., J. Exp. Med. 165: 657-663, 1997). Mice were injected intraperitoneally with 20 mg D-galactosamine-HCL (Sigma)/mouse (in 200 μl PBS) and 0.1 or 1 mg of either HMGB1 B box or vector protein (in 200 μl PBS). Mortality was recorded daily for up to 72 hours after injection; survivors were followed for 2 weeks, and no later deaths from B box toxicity were observed.
To investigate whether the HMGB1 B box has cytokine activity in vivo, we administered HMGB1 B box protein to unanesthetized Balb/c mice sensitized with D-galactosamine (D-gal), a model that is widely used to study cytokine toxicity (Galanos et al., supra). Briefly, mice (20-25 gram, male, Harlan Sprague-Dawley, Indianapolis, Ind.) were intraperitoneally injected with D-gal (20 mg) (Sigma) and B box (0.1 mg/ml/mouse or 1 mg/ml/mouse) or GST tag (vector; 0.1 mg/ml/mouse or 1 mg/ml/mouse), as indicated in Table 1. Survival of the mice was monitored up to 7 days to ensure no late death occurred.

[3] = system: RAW 264.7 cells; assay: IL-1β release from RAW 264.7 cells (ELISA); type: cell-based, murine; details: B box 1 μg/ml or 10 μg/ml, 8 hours
Method: To further examine the effect of HMGB1 B box on cytokine production, varying amounts of HMGB1 B box were evaluated for the effects on TNF, IL-1 B, and IL-6 production in murine macrophage-like RAW 264.7 cells. Conditioned media were harvested and measured for TNF, IL-1β and IL-6 levels. TNF levels were measured as described herein, and IL-1β and IL-6 levels were measured using the mouse IL-1β and IL-6 enzyme-linked immunosorbent assay (ELISA) kits (R&D System Inc., Minneapolis, Minn.) and N>5 for all experiments.

[4] = system: C3H/HeJ mice; assay: Lethality and histology in C3H/HeJ mice; type: in vivo
[5] = system: HMGB1; assay: A box inhibition of HMGB1 induced TNF release from RAW 264.7 cells (L929 assay); type: cell-based; details: HMGB1 1 μg/ml, A box 0-25 μg/ml, 16 hours
Method: Weak agonists are by definition antagonists. […] This study was carried out as follows. Sub-confluent RAW 264.7 cells in 24-well dishes were treated with HMGB1 (1 μg/ml) and 0, 5, 10, or 25 μg/ml of A box for 16 hours in Opti-MEM I medium in the presence of polymyxin B (100 units/ml). The TNF-stimulating activity (assayed using the L929 cytotoxicity assay described herein) in the sample receiving no A box was expressed as 100%, and the inhibition by A box was expressed as percent of HMGB1 alone. […] Data in FIG. 4A are presented as mean±SD (n=2-3 independent experiments).

[6] = 1 mg/mouse ip plus D-gal, 7 hours
[7] = C3H/HeJ mice, 8 hours after administration

Row | Molecule | histology of heart [1, 6] | histology of kidneys and lungs [1, 6] | histology of liver [1, 6] | serum levels of IL-1β ([1]; B box in vivo, Balb/c mice) | serum levels of IL-6 ([1]; B box in vivo, Balb/c mice) | Alive/total ([2]; 0.1 mg/mouse ip with D-gal 20 mg) | Alive/total ([2]; 1 mg/mouse ip with D-gal 20 mg) | lethality ([2]; D-galactosamine-sensitized mice) | time to death ([2]; instances in which death occurred) [h] | IL-1β release [3] | lethality ([4]; C3H/HeJ mice (do not respond to endotoxin)) | histology of heart [4, 7] | histology of liver [4, 7] | histology of lung and kidney [4, 7] | apparent EC50 for inhibition of HMGB1 induced TNF release [5]
1 | B box: Human HMGB1 mutant containing only the B box, SEQ ID NO:20 (protein) FKDPNAPKRLPSAFFLFCSEYRPKIKGEHPGLSIGDVAKKLGEMWNNTAADDKQPYEKKAAKLKEKYEKDIAAY | some ischemic changes and loss of cross striation in myocardial fibers | no abnormality | active hepatitis | 15+3 pg/ml | 315+93 pg/ml | 6/6 | 2/8* | lethal to D-galactosamine-sensitized mice in a dose-dependent manner | ≤ 12 | increased release of IL-1β | lethal | evidence of ischemia with loss of cross striation | mild acute inflammatory responses | no abnormal morphologic changes | –
2 | A box: Human HMGB1 mutant containing only the A box, SEQ ID NO:21 (A box SEQ ID NO:22) (protein) MGKGDPKKPTGKMSSYAFFVQTCREEHKKKHPDASVNFSEFSKKCSERWKTMSAKEKGKFEDMAKADKARYEREMKTYIPPKGET | – | – | – | – | – | – | – | – | – | – | – | – | – | – | approximately 7.5 μg/ml
